# Data reported in paper PMC10531356, “Hardening of Respiratory Syncytial Virus Inclusion Bodies by Cyclopamine Proceeds through Perturbation of the Interactions of the M2-1 Protein with RNA and the P Protein” (International Journal of Molecular Sciences, 2023).
# Where no end group is shown, it is not given here. The star is where a group is joined. FITC = O=C1OC2(c3ccc(O)cc3Oc3cc(O)ccc32)c2ccc(NC(=S)*)cc21
# T1: M2-1 core domain (wild type) (human respiratory syncytial virus …, UniProt P04545 58-177, 15N-labelled for NMR)
# T1 construct: C-terminal globular core domain of M2-1 of hRSV strain Long, from pGEX-M2-1core; UniProt entry of strain Long not known to me; also called 15N-M2-1core; WT M2-1core
# T1 sequence: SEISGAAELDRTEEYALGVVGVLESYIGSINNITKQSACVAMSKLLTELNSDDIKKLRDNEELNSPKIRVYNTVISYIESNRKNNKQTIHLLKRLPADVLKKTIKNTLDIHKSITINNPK
# Legend:
# [1] = biological target: M2-1(R151K)-mCherry mutant (human respiratory syncytial virus (hRSV), strain Long); assay: SEC; Hi-Load 16/600 Superdex 200, 20 mM Tris-HCl pH 7.4, 150 mM NaCl, after GST cleavage
# [2] = biological target: M2-1-mCherry fusion protein (wild type) (human respiratory syncytial virus (hRSV), strain Long); assay: as above
# [3] = biological target: T1, M2-1 core domain (wild type); assay: MST; FITC-P95-112 fixed at 100 nM, M2-1core 0 to 33.5 µM, PBS with 1% DMSO and 0, 1 or 10 µM CPM, 20 °C, Monolith NT.115; details: both partners purified
molecule,measurement,setting,value
M2-1(R151K)-mCherry mutant (natural protein),stoichiometry N,[1],4
M2-1-mCherry fusion protein (wild type) (natural protein),stoichiometry N,[2],4
"{FITC}-DNPFSKLYKETIETFDNN (also called synthetic FITC-P peptide; P peptide; source: synthetic peptide, bought: Proteogenix) [FITC-P(95-112) peptide]",Kd,[3],~20 µM
